Source: patent US20240287172A1 (SCIRHOM, published 2024)

T1: hiR2-FL-WT-FLAG (human, UniProt Q6PJF5 1-856)
T1 construct: on MEF-DKO cells
T1 sequence: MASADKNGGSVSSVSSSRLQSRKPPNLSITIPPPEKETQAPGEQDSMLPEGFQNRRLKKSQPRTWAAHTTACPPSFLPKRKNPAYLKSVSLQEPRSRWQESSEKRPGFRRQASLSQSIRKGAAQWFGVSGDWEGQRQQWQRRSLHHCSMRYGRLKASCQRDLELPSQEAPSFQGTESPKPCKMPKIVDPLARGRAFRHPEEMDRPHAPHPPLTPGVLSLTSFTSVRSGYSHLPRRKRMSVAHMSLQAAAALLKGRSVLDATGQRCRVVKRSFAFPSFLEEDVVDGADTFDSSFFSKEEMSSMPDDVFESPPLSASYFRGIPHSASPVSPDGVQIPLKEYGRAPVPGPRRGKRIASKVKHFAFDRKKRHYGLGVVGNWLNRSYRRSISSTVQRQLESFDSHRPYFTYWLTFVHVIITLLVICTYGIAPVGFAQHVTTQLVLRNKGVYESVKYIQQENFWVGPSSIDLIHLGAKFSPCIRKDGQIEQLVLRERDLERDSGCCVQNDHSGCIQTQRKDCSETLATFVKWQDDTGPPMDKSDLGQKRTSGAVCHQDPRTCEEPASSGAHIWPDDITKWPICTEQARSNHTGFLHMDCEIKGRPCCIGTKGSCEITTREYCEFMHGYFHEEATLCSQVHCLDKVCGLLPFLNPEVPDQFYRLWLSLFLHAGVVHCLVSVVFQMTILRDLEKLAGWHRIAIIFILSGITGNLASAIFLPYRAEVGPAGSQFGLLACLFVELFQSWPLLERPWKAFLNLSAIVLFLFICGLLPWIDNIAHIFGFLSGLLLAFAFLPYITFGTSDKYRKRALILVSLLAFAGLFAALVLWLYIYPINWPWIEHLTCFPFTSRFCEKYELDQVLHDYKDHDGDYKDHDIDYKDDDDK

T2: hiR2-FL-S537E-T7 (human, UniProt Q6PJF5 1-856)
T2 sequence: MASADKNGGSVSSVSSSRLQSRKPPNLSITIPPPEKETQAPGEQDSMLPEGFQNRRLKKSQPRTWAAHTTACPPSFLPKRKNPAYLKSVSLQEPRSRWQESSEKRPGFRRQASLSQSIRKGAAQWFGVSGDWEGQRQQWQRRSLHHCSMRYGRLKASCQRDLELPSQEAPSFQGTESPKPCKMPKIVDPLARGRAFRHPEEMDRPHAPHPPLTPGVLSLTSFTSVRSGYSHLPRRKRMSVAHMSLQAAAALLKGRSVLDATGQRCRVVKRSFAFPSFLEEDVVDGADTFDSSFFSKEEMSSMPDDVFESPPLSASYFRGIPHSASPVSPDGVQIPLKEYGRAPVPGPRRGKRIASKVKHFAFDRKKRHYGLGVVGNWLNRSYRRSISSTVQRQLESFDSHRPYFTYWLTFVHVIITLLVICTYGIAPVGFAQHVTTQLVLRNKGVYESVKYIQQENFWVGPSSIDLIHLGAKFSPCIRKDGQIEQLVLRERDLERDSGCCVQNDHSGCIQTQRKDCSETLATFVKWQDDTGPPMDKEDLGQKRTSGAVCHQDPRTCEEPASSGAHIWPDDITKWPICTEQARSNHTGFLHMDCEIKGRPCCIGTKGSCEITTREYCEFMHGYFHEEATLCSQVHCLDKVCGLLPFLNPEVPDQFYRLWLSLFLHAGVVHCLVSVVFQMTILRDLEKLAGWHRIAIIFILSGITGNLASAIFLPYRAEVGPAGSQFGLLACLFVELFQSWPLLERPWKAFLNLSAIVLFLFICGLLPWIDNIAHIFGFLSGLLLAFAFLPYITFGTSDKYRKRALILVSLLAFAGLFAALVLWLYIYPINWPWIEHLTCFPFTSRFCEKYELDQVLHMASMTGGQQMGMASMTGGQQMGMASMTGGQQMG

B1: antibody 47 (antibody, V domains shown)
VH: QVQLQQSGAELVRPGTSVKVSCKASGYAFTNYLIEWVKQRPGQGLEWIGVINPGSGFTNYNEKFKGKAILNADKSSSTAYMQLISLTSEDSAVYFCARDLKRAMDHWGQGTSVTVSS
VL: DIQMTQSPASQSASLGESVTITCLASQTIGTWLAWYQQKPGKSPQLLIHAATSLADGVPSRFSGSGSGTKFSFKISSLQAEDFVSYYCQQIYSSPYTFGGGTKLEIK
notes: mouse IgG, kappa light chain; also called clone #47
B2: antibody 34 (antibody, V domains shown)
VH: QVTLKESGPGILQPSQTLSLTCSFSGFSLSTFSLGVGWIRQSSGKGLEWLAHIWWDDEKYYNPALKSRLTISKDTSKNQVFLKIANVDAADTATYYCARAYYSKSYYALDYWGQGTSVTVSS
VL: DIQMTQSPSSLSASLGERVSLTCRASQEISGYLSWLQQKPDGTIKRLIYAASTLDSGVPKRFSGSRSGSDYSLAISSLESEDFADYYCLQYANFPFTFGSGTKLEIK
notes: mouse IgG, kappa light chain; also called clone #34; purified antibody 34
B3: antibody 51 (antibody, V domains shown)
VH: QVQLQQSGAELVKPGASVKISCKASGYTFSNYWMNWVKQRPGKGLEWIGQIYPGDGDTKYNGKFKNKATLTADKSSSTAYMQFSSLTSEDSAVYFCARGDLVFVYWGLGTLVTVSA
VL: DVQITQSPSYLAVSPGETITINCRASKNIRKYLAWYQEKPGKTNKLLIYSGSTSQSGVPSRFSGSGSGTDFTLTISSLEPEDFAMYYCQQHNEYPYTFGGGTKLEIK
notes: mouse IgG, kappa light chain; also called clone #51
B4: antibody 5 (antibody, V domains shown)
VH: QVTLKESGPGILQPSQTLSLTCSFSGFSLSTFGMGVGWIRQPSGKGLEWLAHIWWDDEKYYNSALKSRLTISKATSKNQAFLKIANVDTADTATYYCARISNYGSNYWYFNVWGTGTTVTVSS
VL: QVVLTQSPALMSASPGEKVTMTCSAGSSVSCMYWYQQKPGSSPRVLIYDTSNLASGVPARFTGSGSGTSYSLTISRMEAEDAASYYCQQWNSYPLTFGAGTKLELK
notes: mouse IgG, kappa light chain; also called clone #5; purified antibody 5

What was measured:
hiR2-FL-WT-FLAG = target: T1, hiR2-FL-WT-FLAG; test: FACS, MEF-DKO-hiR2-FL-WT-FLAG cells, 3 µg/ml
Experimental: In brief, immortalized MEF-DKO-EV control cells, MEF-DKO-hiR2-FL-WT-FLAG cells and MEF-DKO-miR2-FL-WT-FLAG cells were harvested with 10 mM EDTA in PBS, washed and resuspended in FACS buffer (PBS, 3% FBS, 0.05% sodium azide), and seeded in Nunc U-bottom 96-well plates (Thermo Fisher Scientific, USA) at approximately 3×10⁵ cells per well. To pellet cells and remove supernatants, the plates were centrifuged at 1,500 rpm and 4° C. for 3 minutes. For primary staining, cells were resuspended in 100 μl per well of either FACS buffer alone (controls), mouse monoclonal anti-FLAG IgG (Sigma-Aldrich, USA) at 3 μg/ml FACS buffer or the antibodies of the invention also at 3 μg/ml FACS buffer and incubated on ice for 1 hour. Afterwards, plates were centrifuged at 1,500 rpm and 4° C. for 3 minutes and washed twice with 200 μl per well of FACS buffer. For secondary staining, cells were spun down and resuspended in 100 μl per well of PE-conjugated goat anti-mouse IgG F(ab′)2 detection fragment (Dianova, Germany) diluted 1:100 in FACS buffer. Protected from light, the cell suspensions were incubated on ice for 1 hour. Plates were then centrifuged at 1,500 rpm and 4° C. for 3 minutes and washed three times with 200 μl per well of FACS buffer. Finally, cells were resuspended in 150 μl per well of FACS buffer and analyzed using a BD Accuri™ C6 Plus flow cytometer (Becton Dickinson, Germany).

hiR2-FL-S537E-T7 = target: T2, hiR2-FL-S537E-T7; test: FACS on MEF-DKO cells

Binder	binding result (hiR2-FL-WT-FLAG)	binding result (hiR2-FL-S537E-T7)
B1	binds	
B2		no binding (tested: 3 µg/ml)
B3	binds	
B4		no binding (tested: 3 µg/ml)
